Experimental data taken from PMC10540404.

Experiments:
[1] = biological target: single-chain trimer (SCT) of HLA-A2.1 (TAX-HLA-A2.1-hβM); experiment: co-IP
[2] = biological target: MHC-I (endogenous, mouse primary cortical neurons) (mouse (endogenous in primary cortical neurons)) (UniProt P01901); experiment: co-IP; cultured mouse primary cortical neurons, with or without oligomeric Aβ; anti-mouse MHC-I antibody (2G5); endogenous MHC-I and NCAM1
Sequence of UniProt P01901 (P01901 22-369): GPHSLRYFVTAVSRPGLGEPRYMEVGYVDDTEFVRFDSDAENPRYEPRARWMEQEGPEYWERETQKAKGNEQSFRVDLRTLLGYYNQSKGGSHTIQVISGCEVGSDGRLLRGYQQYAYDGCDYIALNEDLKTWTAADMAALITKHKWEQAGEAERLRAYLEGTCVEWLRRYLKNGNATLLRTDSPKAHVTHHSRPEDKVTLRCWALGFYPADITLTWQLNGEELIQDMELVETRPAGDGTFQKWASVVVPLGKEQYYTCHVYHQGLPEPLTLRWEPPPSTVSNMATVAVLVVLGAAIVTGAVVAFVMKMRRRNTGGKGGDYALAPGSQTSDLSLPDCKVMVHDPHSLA

Row | fold increase of the complex with Aβ treatment [1] [fold] | reduction of co-precipitated NCAM1 with Aβ treatment against control [2] [%] | Substance
1 | 1.5 |  | NCAM1-hemagglutinin (HA) (from UniProt P13591 20-858) (natural protein)
2 |  | 50 | NCAM1 (endogenous, mouse primary cortical neurons) (from UniProt P13595 20-1115) (natural protein)
